Laboratory results from patent US20050003403A1 (IBC PHARMACEUTICALS, published 2005).

Assays:
[1] = target: T1, carcinoembryonic antigen (CEA) (UniProt P06731 35-685, limits assumed); assay: competitive ELISA, CEA-coated wells (0.5 ug/well), competitor HRP-conjugated hMN-14 IgG (1 nM)
T1 construct: Coated on ELISA wells (0.5 ug/well), injected in BIAcore, or mixed in solution for SE-HPLC
T1 sequence (looked up): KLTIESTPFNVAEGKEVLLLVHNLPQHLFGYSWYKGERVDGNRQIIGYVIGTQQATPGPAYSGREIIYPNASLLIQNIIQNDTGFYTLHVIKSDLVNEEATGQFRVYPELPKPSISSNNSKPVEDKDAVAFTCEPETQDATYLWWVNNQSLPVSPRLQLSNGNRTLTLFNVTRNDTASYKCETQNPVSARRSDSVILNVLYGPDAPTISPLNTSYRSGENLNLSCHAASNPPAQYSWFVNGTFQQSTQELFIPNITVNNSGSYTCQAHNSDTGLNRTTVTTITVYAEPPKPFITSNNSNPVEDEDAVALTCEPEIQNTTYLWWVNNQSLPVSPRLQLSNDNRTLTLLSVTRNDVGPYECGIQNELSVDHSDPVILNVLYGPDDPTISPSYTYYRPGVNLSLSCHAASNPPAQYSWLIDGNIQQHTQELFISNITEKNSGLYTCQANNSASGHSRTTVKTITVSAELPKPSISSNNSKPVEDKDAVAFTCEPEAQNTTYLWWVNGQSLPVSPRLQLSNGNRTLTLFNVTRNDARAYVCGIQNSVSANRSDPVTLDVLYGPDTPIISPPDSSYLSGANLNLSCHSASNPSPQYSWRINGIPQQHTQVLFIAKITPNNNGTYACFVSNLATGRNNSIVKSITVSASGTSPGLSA
Procedure: HRP-conjugated hMN14 IgG (1 nM) was mixed with either BS14HP, BS1.5H (a bispecific diabody, monovalent for CEA and monovalent for HSG, derived from the same variable domains as BS14HP) or hMN14 F(ab′)₂ at concentrations ranging from 1-250 nM, prior to incubation in CEA-coated (0.5 μg/well) wells. The % inhibition is plotted vs. nM concentration of sample.
The CEA binding of BS14HP was analyzed in a competitive ELISA and compared to BS1.5H and hMN-14 F(ab′)₂, which have one and two CEA binding groups, respectively (FIG. 6). HRP-conjugated hMN-14 IgG (1 nM) was mixed with either BS14HP, BS1.5H or hMN-14 F(ab′)₂ at concentrations ranging from 1 to 250 nM, prior to incubation in CEA-coated (0.5 μg/well) wells. The IC₅₀ for BS14HP was 2.7 nM which is close to 2.0 nM for hMN14 F(ab′)₂.

[2] = target: T1, carcinoembryonic antigen (CEA); assay: BIAcore, hBS14 captured on HSG sensorchip, then CEA injected

B1: BS14HP (bispecific antibody)
chain 1: EAEAEFMEVQLVESGGDLVKPGGSLKLSCAASGFTFSIYTMSWLRQTPGKGLEWVATLSGDGDDIYYPDSVKGRFTISRDNAKNSLYLQMNSLRAEDTALYYCARVRLGDWDFDVWGQGTTVSVSSGGGGSDIQLTQSPSSLSASVGDRVTITCKASQDVGTSVAWYQQKPGKAPKLLIYWTSTRHTGVPSRFSGSGSGTDFTFTISSLQPEDIATYYCQQYSLYRSFGQGTKVEIKRLEGGGSEVQLVESGGGVVQPGRSLRLSCSASGFDFTTYWMSWVRQAPGKGLEWIGEIHPDSSTINYAPSLKDRFTISRDNAKNTLFLQMDSLRPEDTGVYFCASLYFGFPWFAYWGQGTPVTVSVDHHHHHH
chain 2: EAEAEFDIQLTQSPSSLSASVGDRVTITCKASQDVGTSVAWYQQKPGKAPKLLIYWTSTRHTGVPSRFSGSGSGTDFTFTISSLQPEDIATYYCQQYSLYRSFGQGTKVEIKRGGGQFMEVQLVESGGGVVQPGRSLRLSCSASGFDFTTYWMSWVRQAPGKGLEWIGEIHPDSSTINYAPSLKDRFTISRDNAKNTLFLQMDSLRPEDTGVYFCASLYFGFPWFAYWGQGTPVTVSGGGGSDIVMTQSPSSLAVSPGERVTLTCKSSQSLFNSRTRKNYLGWYQQKPGQSPKLLIYWASTRESGVPDRFSGSGSGTDFTLTINSLQAEDVAVYYCTQVYYLCTFGAGTKLELKRLDHHHHHH
notes: Non-covalent heterodimer with two CEA sites and one HSG site; The alpha-factor signal peptide is removed on secretion; also called bispecific trivalent heterodimer; hMN-14 x hMN-14 x 679 produced in Pichia pastoris
**Q.** For B1, which IC50 [1] is on record?
**A.** 2.7 nM

B2: hBS14 (bispecific antibody)
chain 1: MEVQLVESGGDLVKPGGSLKLSCAASGFTFSIYTMSWLRQTPGKGLEWVATLSGDGDDIYYPDSVKGRFTISRDNAKNSLYLQMNSLRAEDTALYYCARVRLGDWDFDVWGQGTTVSVSSGGGGSDIQLTQSPSSLSASVGDRVTITCKASQDVGTSVAWYQQKPGKAPKLLIYWTSTRHTGVPSRFSGSGSGTDFTFTISSLQPEDIATYYCQQYSLYRSFGQGTKVEIKRLEGGGSEVQLVESGGGVVQPGRSLRLSCSASGFDFTTYWMSWVRQAPGKGLEWIGEIHPDSSTINYAPSLKDRFTISRDNAKNTLFLQMDSLRPEDTGVYFCASLYFGFPWFAYWGQGTPVTVSVDHHHHHH
chain 2: MDIQLTQSPSSLSASVGDRVTITCKASQDVGTSVAWYQQKPGKAPKLLIYWTSTRHTGVPSRFSGSGSGTDFTFTISSLQPEDIATYYCQQYSLYRSFGQGTKVEIKRGGGQFMEVQLVESGGGVVQPGRSLRLSCSASGFDFTTYWMSWVRQAPGKGLEWIGEIHPDSSTINYAPSLKDRFTISRDNAKNTLFLQMDSLRPEDTGVYFCASLYFGFPWFAYWGQGTPVTVSGGGGSDIVMTQSPSSLAVSPGERVTLTCKSSQSLFNSRTRKNYLGWYQQKPGQSPKLLIYWASTRESGVPDRFSGSGSGTDFTLTINSLQAEDVAVYYCTQVYYLCTFGAGTKLELKRLDHHHHHH
notes: 79.4 kDa heterodimer of polypeptide 1 and polypeptide 2, produced in SP2/0, YB2/0 or NS0 cells; Bivalent for CEA, monovalent for HSG; also called bispecific trivalent heterodimer expressed in myeloma cells; hMN-14 x hMN-14 x 679
**Q.** Does B2 bind [2]?
**A.** binds

B3: hMN-14 F(ab')2 (other)
VH: EVQLVESGGGVVQPGRSLRLSCSASGFDFTTYWMSWVRQAPGKGLEWIGEIHPDSSTINYAPSLKDRFTISRDNAKNTLFLQMDSLRPEDTGVYFCASLYFGFPWFAYWGQGTPVTVS
VL: DIQLTQSPSSLSASVGDRVTITCKASQDVGTSVAWYQQKPGKAPKLLIYWTSTRHTGVPSRFSGSGSGTDFTFTISSLQPEDIATYYCQQYSLYRSFGQGTKVEIKR
notes: F(ab')2 of humanized anti-CEA hMN-14, 100 kDa; The VH in the construct ends ...VTVS
**Q.** Which IC50 [1] does the source give for B3 here?
**A.** 2 nM

B4: BS1.5H (bispecific antibody)
chain 1: MEVQLVESGGDLVKPGGSLKLSCAASGFTFSIYTMSWLRQTPGKGLEWVATLSGDGDDIYYPDSVKGRFTISRDNAKNSLYLQMNSLRAEDTALYYCARVRLGDWDFDVWGQGTTVSVSSGGGGSDIQLTQSPSSLSASVGDRVTITCKASQDVGTSVAWYQQKPGKAPKLLIYWTSTRHTGVPSRFSGSGSGTDFTFTISSLQPEDIATYYCQQYSLYRSFGQGTKVEIKRLEHHHHHH
chain 2: MEVQLVESGGGVVQPGRSLRLSCSASGFDFTTYWMSWVRQAPGKGLEWIGEIHPDSSTINYAPSLKDRFTISRDNAKNTLFLQMDSLRPEDTGVYFCASLYFGFPWFAYWGQGTPVTVSGGGGSDIVMTQSPSSLAVSPGERVTLTCKSSQSLFNSRTRKNYLGWYQQKPGQSPKLLIYWASTRESGVPDRFSGSGSGTDFTLTINSLQAEDVAVYYCTQVYYLCTFGAGTKLELKRLEHHHHHH
**Q.** With B4 as the binder, how does the IC50 [1] read?
**A.** 10 nM
